Laboratory results taken from publication PMC5552228, “Mapping the contact surfaces in the Lamin A:AIMP3 complex by hydrogen/deuterium exchange FT-ICR mass spectrometry” (PLoS ONE, 2017).

Biological target: T1, His-Tev-AIMP3 (aminoacyl-tRNA synthetases-interacting multifunctional protein 3) (human, UniProt O43324 1-174)
T1 construct: also called AIMP3/p18; MSC p18; source: E. coli BL21 (DE3), pET28a, purified (Ni-HiTrap, desalting column); not shown: His6-Tev (6-his tag and Tobacco Etch Virus protease cutting site, aa1-22 of the construct), N-terminal, kept
T1 sequence (looked up): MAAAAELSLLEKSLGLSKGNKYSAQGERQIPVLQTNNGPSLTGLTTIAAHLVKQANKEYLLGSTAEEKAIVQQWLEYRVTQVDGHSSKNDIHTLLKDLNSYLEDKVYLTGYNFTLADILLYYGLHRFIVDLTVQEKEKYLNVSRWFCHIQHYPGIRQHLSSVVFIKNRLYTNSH
Experiment: HDX-MS; AIMP3 and LmnA mixed in 1:1 ratio, 40 uM stock, 20 mM Hepes, 150 mM NaCl, pH 7.5, diluted into D2O; 0.5-240 min at 0.4 °C; protease type XIII digestion; LC-ESI 14.5 T FT-ICR MS; free against complexed protein
Details: both partners purified

B1: His-Strep-TrxA-LmnA (C-terminal part of Lamin A, 567-646) (domain or fragment, UniProt P02545 567-646, looked up)
chain: GSHCSSSGDPAEYNLRSRTVLCGTCGQPADKASASGSGAQVGGPISSGSSASSVTVTRSYRSVGGSGGGSFGDNLVTRSY
notes: C-terminal part of mature Lamin A, residues 567-646 by the methods (the results say aa567-647, 80 aa); ends in NLVTRSY (203-209 of the construct); also called LmnA C-terminus; LmnA (aa567-647); source: E. coli BL21 (DE3), pET28a, purified (as for AIMP3: Ni-HiTrap, desalting column); not shown: His, N-terminal, kept; Strep, N-terminal, kept; TrxA (thioredoxin), N-terminal, kept
- binding result: binds
